We go through seven molecules from paper PMC11960969, “Mdga2 deficiency leads to an aberrant activation of BDNF/TrkB signaling that underlies autism-relevant synaptic and behavioral changes in mice” (PLOS Biology, 2025).

This test relates to hippocampal proteins. As to the kind of experiment: DIA quantification proteomics, hippocampus of Mdga2+/- vs WT mice. Also on record: species or system mouse. To be noted: S3 Table, downregulated DEPs; for log2FC: Mdga2+/- vs WT mouse hippocampus (HET-HIP-VS-WT-HIP), SE, pvalue and adj_pvalue in own columns c3-c5; for Class: regulation class of the protein, HET-HIP-VS-WT-HIP. As for the experimental part:
The hippocampus of 1.5–2-month-old Mdga2^ +/− male mice and their WT littermate controls was collected and sent to the BGI company for DIA quantification proteomics and data analysis. Briefly, samples were lysed and sonicated. After centrifugation, the supernatant was taken for quantification. Equal amounts of proteins (100 μg) per sample were subjected to trypsin enzymatic hydrolysis. After dryness, 10 μg enzymatic peptides per sample were separated by high-pH fractionation into a total of 10 fractions using high-performance liquid chromatography (HPLC) and freeze-dried. Data-dependent acquisition (DDA) fractions and DIA samples were analyzed by nano-LC–MS/MS. DDA data was identified by Andromeda search engine within MaxQuant. Identified results were used by Spectronaut^TM for spectral library construction. For DIA data, Spectronaut^TM used the constructed spectral library information to complete deconvolution and extraction, and used the mProphet algorithm to complete analytical quality control for obtaining reliable quantitative results. The mass spectrometry proteomics data have been deposited to the ProteomeXchange Consortium via the PRIDE [62] partner repository with the dataset identifier PXD050810. DEPs between comparison groups were identified based on the quantitative results, using the fold change >1.1 and p-value <0.05 as the criteria. After retrieval from the UniProtKB database, identified DEPs were processed for GO analysis by using DAVID (https://david.ncifcrf.gov/home.jsp) and Metascape database (https://metascape.org/gp/index.html).

B1: sp¦Q71FD5¦ZNRF2_MOUSE (protein, UniProt Q71FD5 2-238, looked up)
E3 ubiquitin-protein ligase …: GAKQSGPAANGRTRAYSGSDLPSGTGSGGGGADGARAARFAAPVSGAQQPSASAGAAAAAAAAASAPAAPRSRSLGGAVGSASGGRAAQSAFSIPSAGGGGGPYGSQDSVHSSPEDSVGARDRDRPAGGGPGGPRLVIGSLPAHLSPHLFGGFKCPVCSKFVPSDEMDLHLVMCLTKPRITYNEDVLSKDTGECAICLEELQQGDTIARLPCLCIYHKGCIDEWFEVNRSCPEHPSD
For B1, the log2FC is given as -1.4 and the Class result is reported as “Down”.

B2: sp¦Q80TS7¦DEND_MOUSE (protein, UniProt Q80TS7 1-710, looked up)
Dendrin: MLDGPLFSEGPDSPRELQDEESGSCLWVQKSKLLVIEVKTISCHYSRRAPSRQSMDIQASYWARGPQSRTCRLRPGSPEPPPRRPWASRVLQEATNWRAGPPAEVRAREQEKRKAASQEREAKETERKRRKAGGARRSPLGQPRPEPRNALRAAQPTGFPVFSRPERFGQVGRAPRPSVLPQGDPGVAWAGPWGGRRPGPPSYEAHLLLRGSAGTAPRRRWDRPPPYVAPPSYEGPHRTLGTKRGPELSRAPTSSAPVPATTRTEGGRTKKRLDPRIYRDVLGAWGLRQGRGLLGGAPGCTAARARPESCKGAIEKSSGLVAAGLNSAGDSHSQGKTTGGPGTDAALSRSAISSPPRPVPRSRQHLRGSRKGKEGSEQIWLPTCWLASPKKPPVRHSQTLPRPWAPGGTGWKESLGQREGAEHETLEVWKVTRRAHTLPRISRGPAGREGIFVIDATCVVIKSQYVPTPRTQQGQLVPSGESCSVSDSLSQPKPCHEEEGEGAAANPSVCQKRLLSSRVLNQPSEGRECEAEVGQQGDSSLEERSSSGLGFPVGEVNPRDAPTQPGSQEHPTLGPAAPVCAGSLKGSEAAGVPRRAGGGWARTPGPYAGALREAVSRIRRHTAPDSDSDEAEDLSVHSGSSDGSDTDAPGASWRNERTLPALGNTRPREGGKTAGLSDSIREIVDVISQTEEGFIREDTRKTPQGNRERE
With B2, the log2FC is on record as -1.4022 and the Class result was “Down”.

B3: sp¦Q7TT15¦GLT17_MOUSE (protein, UniProt Q7TT15 1-598, looked up)
Polypeptide …: MASLRRVKVLLVLNLIAVAGFVIFLAKCRPIAVRSGDAFHEIRPRAEVANLSAHSASPIQDAVLKRLSLLEDIVYRQLNGLSKSLGLIEGYGGRGKGGLPATLSPSEEEKAKGPHEKYGYNSYLSEKISLDRSIPDYRPTKCKELKYSKELPQISIIFIFVNEALSVILRSVHSAVNHTPTHLLKEIILVDDNSDEEELKAPLEEYVHKRYPGLVKVVRNQKREGLIRARIEGWKAATGQVTGFFDAHVEFTAGWAEPVLSRIQENRKRVILPSIDNIKQDNFEVQRYENSAHGYSWELWCMYISPPKDWWDAGDPSLPIRTPAMIGCSFVVNRKFFGEIGLLDPGMDVYGGENIELGIKVWLCGGSMEVLPCSRVAHIERKKKPYNSNIGFYTKRNALRVAEVWMDDYKSHVYIAWNLPLENPGIDIGDVSERKALRKSLKCKNFQWYLDHVYPEMRRYNNTIAYGELRNNKAKDVCLDQGPLENHTAILYPCHGWGPQLARYTKEGFLHLGALGTTTLLPDTRCLVDNSKSRLPQLLDCDKVKSSLYKRWNFIQNGAIMNKGTGRCLEVENRGLAGIDLILRSCTGQRWAIKNPIK
For the molecule B3, the log2FC is listed as -1.487 and the Class entry is given as “Down”.

B4: sp¦Q80TF3¦PCD19_MOUSE (protein, UniProt Q80TF3 22-1145, looked up)
Protocadherin-19: LINLKYSVEEEQRAGTVIANVAKDAREAGFALDPRQASAFRVVSNSAPHLVDINPSSGLLVTKQKIDRDLLCRQSPKCIISLEVMSSSMEICVIKVEIKDLNDNAPSFPAAQIELEISEAASPGTRIPLDSAYDPDSGSFGVQTYELTPNELFGLEIKTRGDGSRFAELVVEKSLDRETQSHYSFRITALDGGDPPHMGTVGLSIKVTDSNDNNPVFGESTYSVSVPENSPPNTPVIRLNASDPDEGTNGQVVYSFYGYVNDRTRELFQIDPHSGLVTVTGALDYEEGHVYELDVQAKDLGPNSIPAHCKVTVSVLDTNDNPPIINLLSVNSELVEVSESAPPGYVIALVRVSDRDSGLNGRVQCRLLGNVPFRLQEYESFSTILVDGRLDREQHDQYNLTIQARDSGVPMLQSAKSFTVRITDENDNHPHFSKPYYQVIVQENNTPGAYLLSVSARDPDMGLNGSVSYQIVPSQVRDMPVFTYVSINPNSGDIYALRSFNHEQTKAFEFKVLAKDGGLPSLQSNATVRVIILDVNDNTPVITAPPLINGTAEVYIPRNSGIGYLVTVVKADDYDEGENGRVTYDMTEGDRGFFEIDQVNGEVRTTRTFNENSKPSYELIVVAHDHGKTSLSASALVLIYLSPALDAQESMGSVNLSLIFIIALGSIAGILFVTMIFVAIKCKRDNKEIRTYNCSNCLTITCLLGCFIKGQNSKCLHCISVSPNSEEQDKKAEEKVSLRGKRIAEYSYGHQKKSSKKKKISKNDIRLVPRDVEETDKMNVVSCSSLTSSLNYFDYHQQTLPLGCRRSESTFLNVENQNTRNTTASHIYHHSFNSQGPQQPDLIINGVPLPETENYSFDSNYVNSRAHLIKSSSTFKDLEGNSLKDSGHEESDQTDSEHDVQRSLYCDTAVNDVLNTSVTSMGSQMPDHDQNEGFHCREECRILGHSDRCWMPRNPMPTRSKSPEHVRNIIALSIEATAADVEAYDDCGPTKRTFATFGKDVSSHRAEERPILKGKRTVDVTICSPKVNSAIREAGNGCEAISPVTSPLHLKSPLPTKPSISYTVALAPPAHDLEHHANSGASRPSEAEPRGADNEKVMHEVNPIRKDGRDKESPSVKRLKDIVL
On to B4, for which the log2FC is given as -1.393 and the Class entry was “Down”.

B5: sp¦Q8BTY2¦S4A7_MOUSE (protein, UniProt Q8BTY2 1-1034, looked up)
Sodium bicarbonate …: MEADGAGEQMRPLLTRGPDEEAVVDLGKTSSTVNTKFEKEELESHRAVYVGVHVPFSKESRRRHKHRGHKHHHRRRKDKDSDKEDGRESPSYDTPSQRVQFILGTEDDDEEHIPHDLFTEMDELCYRDGEEYEWKETARWLKFEEDVEDGGDRWSKPYVATLSLHSLFELRSCILNGTVMLDMRASTLDEIADMVLDNMIASGQLDDSIRENVREALLKRHHHQNEKRFTSRIPLVRSFADIGILASPQSAPGNLDNSKSGEMKGNGSGGSRENSTVDFSKVDMNFMRKIPTGAEASNVLVGEVDFLERPIIAFVRLAPAVLLSGLTEVPVPTRFLFLLLGPAGKAPQYHEIGRSIATLMTDEIFHDVAYKAKDRNDLLSGIDEFLDQVTVLPPGEWDPSIRIEPPKSVPSQEKRKIPVFPNGSAAMSVGPPKEDDHHAGPELQRTGRLFGGLILDIKRKAPFFLSDFKDALSLQCLASILFLYCACMSPVITFGGLLGEATEGRISAIESLFGASLTGIAYSLFAGQPLTILGSTGPVLVFEKILFKFCRDYHLSYLSLRTSIGLWTSFLCIVLVATDASSLVCYITRFTEEAFAALICIIFIYEALEKLFHLGEIYAFNMHNNLDELTSYTCVCAEPSNPSNETLELWKRKNITAYSVSWGNLTVSECKTFHGMFVGSACGPHGPYVPDVLFWCVVLFFTTFFLSSFLKQFKTKGYFPTKVRSTISDFAVFLTIVIMVAIDYLVGIPSPKLHVPEKFEPTDPSRGWIISPLGDNPWWTLLIAAVPALLCTILIFMDQQITAVIINRKEHKLKFIPMPVLYGVFLYMGVSSLKGIQFFDRIKLFGMPAKHQPDLIYLRYVPLWKVHVFTVVQLTCLVLLWVIKASAAAVVFPMMVLALVFVRKLMDLCFTKRELSWLDDLMPESKKKKEDDKKKKEKEEAERMLQDDEDTVHLPFERGSLLQIPVKTLKYSIDPSVVNISDEMAKTAQWKALSMNTENAKVTRPNTSPEKPVSVTINFEDEPSKKYMDAETSL
With B5, the log2FC is on record as -1.445 and the Class result is reported as “Down”.

B6: sp¦Q61097¦KSR1_MOUSE (protein, UniProt Q61097 1-873, looked up)
Kinase suppressor of Ras 1: MDRAALRAAAMGEKKEGGGGGAAADGGAGAAVSRALQQCGQLQKLIDISIGSLRGLRTKCSVSNDLTQQEIRTLEAKLVKYICKQQQSKLSVTPSDRTAELNSYPRFSDWLYIFNVRPEVVQEIPQELTLDALLEMDEAKAKEMLRRWGASTEECSRLQQALTCLRKVTGLGGEHKMDSGWSSTDARDSSLGPPMDMLSSLGRAGASTQGPRSISVSALPASDSPVPGLSEGLSDSCIPLHTSGRLTPRALHSFITPPTTPQLRRHAKLKPPRTPPPPSRKVFQLLPSFPTLTRSKSHESQLGNRIDDVTPMKFELPHGSPQLVRRDIGLSVTHRFSTKSWLSQVCNVCQKSMIFGVKCKHCRLKCHNKCTKEAPACRITFLPLARLRRTESVPSDINNPVDRAAEPHFGTLPKALTKKEHPPAMNLDSSSNPSSTTSSTPSSPAPFLTSSNPSSATTPPNPSPGQRDSRFSFPDISACSQAAPLSSTADSTRLDDQPKTDVLGVHEAEAEEPEAGKSEAEDDEEDEVDDLPSSRRPWRGPISRKASQTSVYLQEWDIPFEQVELGEPIGQGRWGRVHRGRWHGEVAIRLLEMDGHNQDHLKLFKKEVMNYRQTRHENVVLFMGACMNPPHLAIITSFCKGRTLHSFVRDPKTSLDINKTRQIAQEIIKGMGYLHAKGIVHKDLKSKNVFYDNGKVVITDFGLFGISGVVREERRENQLKLSHDWLCYLAPEIVREMIPGRDEDQLPFSKAADVYAFGTVWYELQARDWPFKHQPAEALIWQIGSGEGVRRVLASVSLGKEVGEILSACWAFDLQERPSFSLLMDMLERLPKLNRRLSHPGHFWKSADINSSKVMPRFERFGLGTLESGNPKM
In the case of B6, the log2FC is -1.493 and the Class result is “Down”.

B7: sp¦Q9JK53¦PRELP_MOUSE (protein, UniProt Q9JK53 22-378, looked up)
Prolargin: QPTRPKPGIRRKPKPRPTPRFPQAPEPAEPTDLPPPLPPGPPSVFPDCPRECYCPPDFPSALYCDSRNLRRVPVIPPRIHYLYLQNNFITELPLESFQNATGLRWVNLDNNRIRKVDQRVLGKLPSLAFLYMEKNQLEEVPSALPRNLEQLRLSQNLISRIPPGVFSKLENLLLLDLQHNRLSDGVFKADTFQGLKNLMQLNLAHNILRKMPPKVPQAIHQLYLDSNKIETIPNGYFKDFPNLAFIRMNYNKLSDRGLPKNSFNISNLLVLHLSHNKISNVPAISNKLEHLYLNNNSIEKINGTQICPNNLVAFHDFSSDLENVPHLRYLRLDGNFLKPPIPLDLMMCFRLLQSVVI
As to B7, the log2FC was -1.413 and the Class entry is “Down”.
